According to patent CN104592390A (SHANGHAI ZHANGJIANG BIOTECHNOLOGY CO LTD; SHANGHAI HAISI …, dated 2015):

Target: T1, 乙型肝炎表面抗原(HBsAg) (Hepatitis B virus)
T1 chain: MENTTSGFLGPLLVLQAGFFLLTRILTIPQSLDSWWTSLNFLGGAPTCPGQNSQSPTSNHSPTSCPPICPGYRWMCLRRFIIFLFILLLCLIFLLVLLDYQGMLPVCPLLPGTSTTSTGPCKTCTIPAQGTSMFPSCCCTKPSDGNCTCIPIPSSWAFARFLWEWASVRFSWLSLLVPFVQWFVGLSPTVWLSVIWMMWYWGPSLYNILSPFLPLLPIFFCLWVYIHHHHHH
Assay: ELISA affinity determination on HBsAg

B1: C4D2-BsAb (bispecific antibody, human IgG1, kappa)
VH: not shown
VL: DIVMTQSPLSLSVTPGEPASISCRSSQSLLHRSGNNYLDWYLQKPGHSPQLLIYVGSNRASGVPDRFSGSGSGTEYTLKISRVEAEDVGVYYCMQALQTPRTFGQGTKLEIKRTVAAPSVFIFPPELVMTQSPSSLSASVGDRVTITCRASQGIYNSIAWYQQKPGKAPKLLLYSTSTLLSGVPSRFSGSGSGTDYTLTITNLQPEDFATYYCQQYFVTPETFGQGTKVEIKRTVAAPSVFIFPPSDEQLKSGTASVVCLLNNFYPREAKVQWKVDNALQSGNSQESVTEQDSKDSTYSLSSTLTLSKADYEKHKVYACEVTHQGLSSPVTKSFNRGEC
notes: Dual-variable-domain format; also called 双特异性抗体C4D2-BsAb
  Kd: 3.88 nM
